Measured values as given in the nanobody polyreactivity screen of Harvey et al. (2022).

Assay: yeast display, Sf9 membrane polyspecificity reagent, FACS + sequencing; frameworks hold sequencing errors
How it was run: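 Sorting gates, low and high (top ~1%), were placed on anti-HA fluorescence to track expression and on streptavidin fluorescence to track reagent binding. A clone's polyreactivity label is taken from the gate it came out of. The reagent was 10% biotinylated, detergent-solubilized Sf9 membrane, applied for 1 hour at 4 °C to galactose-induced yeast display cells.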
With “QVQLVESGGGLVQAGGSLRLSCAASGFILPYYTMGWYRQAPGKDRELVAAITYSGASPFYADSVKGRFTISRVNAKNTVYLQMNSLKPEDTGVYYGANEWSGWYESPLDDGDYDYWGQGTEVTVSS” the “polyreactivity (PSR sort gate)” value was “low polyreactivity”. For “QVQLVESGGGLVQAGGSLRLSCAASGRIFTRYAMGWYRQAPGKERELVSAISSGGSTYYADSVKGRFTISRDNAKNTVYLQMNSLKPEDTAVYYCAAKTRPQRTYSTRQQMNYWGQGTQVTVSS”, the “polyreactivity (PSR sort gate)” value was “high polyreactivity”. With “QVQLVESGGGLVQAGGSLRLSCAASGNIFFGYAMGWYRQAPGKEREFVASITKIGGSTYYADSVQGRFTISRDNAKNTVYLQMNSLKPEHTAVYYCAKTILYDCDYWGQGTQVTVSS” the “polyreactivity (PSR sort gate)” value was “low polyreactivity”. For “QVQLVESGGALVQAGGSLRLSCAASGITFLYYAMGWYRQAPGKERELVAAISGGGASTYYADSVKGRFTISRDNAKNTVYLQMNSLKPEDTAVYYCAAGYRDFFRARFGYWGQGTQVTVSS”, the “polyreactivity (PSR sort gate)” value was “high polyreactivity”. With “QVQLVESGGGLVQAGRSNRISCAASGGIFSYYAMGWYRQAPGKEREFVAAIDWGGGSTYYADSLKGRFTLSRDNAKNTVYLQMNSLKPEDTAVYYCAAEIYPIGWDDYDYWGQGTQVTVSS” the “polyreactivity (PSR sort gate)” value was “low polyreactivity”. In the case of “LVQHVESGGGIVQAGGSLRLICAASGFPYNYYAMGWYRQAPGTEREFVAAISSGGGSTYYAYSVKGRFTISRDNAKNTVYLQMNSLKPEDTSGYYCAADRYSHYGYWGQATQVTVSS”, the “polyreactivity (PSR sort gate)” value is reported as “low polyreactivity”. For “QVHLVESGGGLVQAGGSLRLSCADSGLTFVFYAMGWYRPAPGKERELVAAISWSTGRTYYPDSVKGRFTISRDTAKNTVYLQMNSLNPEDSAVYYCAASYLGRKYVYWGQGTQVTVSS”, the “polyreactivity (PSR sort gate)” value was “high polyreactivity”. For “QVQLVESGGGLVQARGSLRLSCAASGRTFTYNAMAWYRQAPGKERELVAAINSGGSTNYADSVKGRFTISRDNAKNTVYLQMNSLKPEDTAVYYCNAGFGFGSSRYGTRYYYWGQGSQVTVSS”, the “polyreactivity (PSR sort gate)” value was “low polyreactivity”. In the case of “QDQLVESGGGLVQAGGSLRLSCAASGSIFTDNVMGWYRQATGKERELVAAITSTGGNTYYADSVKGRFTISRDNAKNTVYLQMNSLKREDTAVYYSNKDVARYPYGKFDYWGQGTQVTVSS”, the “polyreactivity (PSR sort gate)” value is reported as “low polyreactivity”. In the case of “QVQLVESGGGLVQAGGSLRLSCAASGRIFTYYAMGWYIQAPGKERELVASITGSGGSTDYADSVKGRFTISRDNAKNTVYLQRNSLKPEDTAVYYCAADGLSYGPLYNYDYWGQGTQVTVSS”, the “polyreactivity (PSR sort gate)” value is reported as “low polyreactivity”. With “QVQLVESGGGLVQAGGSLRLSCAASGFIFYHNAMGWYRQAPGKERELVAAISSTGGSTHYADSVKGRFTISRDNAKNTVYLQMNSLKPEDTAVYYCNADPRRRWYDYWGQGTQVTVSS” the “polyreactivity (PSR sort gate)” value was “high polyreactivity”. In the case of “QVQLVESGGGLVQAGGSLRLSCAASGSISNRYAMGWYRQAPGKERELVAAISTGGGTTYYADSVKGRFTISRDNAKNTVYLQMNSLKPEDTAVYYCAADDWRYYRELDYWGQGTQVTVSS”, the “polyreactivity (PSR sort gate)” value is reported as “low polyreactivity”. With “QVQLVESGGCLVQAGGSLRLSCAASGIIFGRYTMGWYRQAPGKERELVAAITSSGITYYADSVKGRVTISRDNAKNTVYLQMNSLKPEDTAVYYCNADYSSPGYYWPYDYWGQGTQVSVSS” the “polyreactivity (PSR sort gate)” value was “low polyreactivity”. With “QVQLVESGGGLVQAGGSLRLSCVASGNIFVFYLMGWYRQAPGKERELVASISSTGNTYYADSVKGRFTISRDNAKNTVYLQMNSLKPEDTAVYYCAADSHQNVSGWLRWPRMDYWGQGTQVTVSS” the “polyreactivity (PSR sort gate)” value was “low polyreactivity”. In the case of “QVQLVESGGGLVQAGGSLRLSCAASGSIFVDNAMGWYRQAPGKERELVAAINWSGGSTYYADSVKGRFTISRDNAKNTVYLQMNSLKQEDTAVYYCNAARPVQTWDEQSWYDYWGQGTQVTVSS”, the “polyreactivity (PSR sort gate)” value is reported as “low polyreactivity”. In the case of “QVQLVESGGGLVQAGGSLRLSCAASGRIFYRYAMGWYRQAPGKERELVASITGRGGRTYYADSVKGRFTISRDNAKNSVYLHMNSLKPEDTEVYYCAADWGVHRPPYDSWGQGTQVTVSS”, the “polyreactivity (PSR sort gate)” value is reported as “high polyreactivity”. With “QVQLVESGGGLVQAGGSLRLSCAASGSTFSSNAMGWYRQAPGKERELVAAITGSGGSTYYADSVKGRFTISRDNAKNTVYLQMNSLKPEDTAVYYCAAKWYGITYKYEYWGQGTQVTVSS” the “polyreactivity (PSR sort gate)” value was “high polyreactivity”. In the case of “QVQLVESGGGLVQAGGSLRLSCAASGNIFAYYAMGWYRQAPGKERELVAAITDSGGNTFYADSVKGRFTISRDNAKNTVYLQMNSLKPEDTAVYYCAADPDGWGFVYPRYDYWGQGTQVTVSS”, the “polyreactivity (PSR sort gate)” value is reported as “low polyreactivity”. In the case of “QVQLVESGGGLVQAGGSLRLSCAASGRTLGRNAMGWYRQAPGKERELVASISSGGSTNYADSVKGRFTISRDNAKNTVYLQMNSLKPEDTAVYYCAAGYFRDYWGQGTQVTVSS”, the “polyreactivity (PSR sort gate)” value is reported as “high polyreactivity”. With “QVQLVESGGGLVQAGGSLRLSCAASGSIFTGYAMGWYRQAPGKERELVAAIRTRGGSTYYADSVKGRFTISRDNAKNTVYLQMNSLKPEDTAVYYCAKRYYGWYGNFDYWGQGTLVTVSS” the “polyreactivity (PSR sort gate)” value was “high polyreactivity”. In the case of “HVQLVESGGGLVQAGGSLRLSCAASGNTFTEYAMGWYRQAPGKERELVASITGSGGSTYADSVRGRFTISRDNAKNTVYLQMNSLKPEDTAVYYCAKDPRYEYVGSEYGYWGQGTQVTVSS”, the “polyreactivity (PSR sort gate)” value is reported as “low polyreactivity”. With “QVQLVESCGGLVQAGGSLRLSCAASGSIFGDYVMGWYRQAPGKERELVAAINRGGSTYYADSVKGRFTISRDNAKNTVYLQMNSLKPEDTAVYYCAAGYPSWYYGYPYDSWGQGTQVTVSS” the “polyreactivity (PSR sort gate)” value was “low polyreactivity”. In the case of “QVQLVESGGGLVQAGGSLRLSCAASGFTFWPYTMGWYRQAPGKERELVAVISSSGGSTYYADSVKGRFTISRDNAKNTVYLQMNSLKPEDTAVYYCNARRRYGHVDYWGQGTQVTVSS”, the “polyreactivity (PSR sort gate)” value is reported as “high polyreactivity”. With “QVQLVESGGGLVQAGGSLRLSSAAAGSTFGRYAMGWYRQAPGKEREFVAAITQGGTNTYYADSVKGRFTISRDNAKNTVYLQMNSLKPEDTAVYYCARVRRYPLRYNYWGQGTQVTVSS” the “polyreactivity (PSR sort gate)” value was “high polyreactivity”. With “QVQRVESAGGLVQAGGSLRLSCAASGFIFSWYAMGWYRQAPGKERELVAAIRWSSGRTYYADSVKGRFTISRDNAKNTVYVQMNSLKPEDTAVYYCNARSDIHNSYDYWGQGTQVTVSS” the “polyreactivity (PSR sort gate)” value was “high polyreactivity”. In the case of “QVQLVESGGGLVQAGGSLRLSCAASGIIFYAYAMGWYRQAPGKERELVAAITFSAVSTYYADSVKGRFTISRDNAKNTVYLQMNSLKPEDTAVYYCAVDREWPGYYYAISKMYYWGQGTQVTVSS”, the “polyreactivity (PSR sort gate)” value is reported as “low polyreactivity”. With “QVQLVESGGGLVQAGGSLRLSCAASGSTFGYNAMGWYRQAPGKERELVAAITWSGGSTYYADSVKGRFTISRDNAKNTVYLQMNSLKPEDTAVYYCAADDWYNSTWHYYYWGQGTQVTVSS” the “polyreactivity (PSR sort gate)” value was “low polyreactivity”. With “QVQLQESGGGLVQACGSLRLSCAASGYIFSHQYMGWYRQAPGKERELVASISPGATTNYADCVKGRFTISRDNAKNTVYLQMNSLKPEDTAVYYYAVYQILDRRLSYWGQGTQVTVSC” the “polyreactivity (PSR sort gate)” value was “high polyreactivity”. With “QVQLVESGGGLVQAGGSLRLSCADSGSIFQYNTMGWYRQAPGKERELVADINGRGGSTYYADSVKGRFTISRDNAKNTVYLQMNSLKPEDTAVYYCAVEGVSTYLWTSYGYWGQGTQVTVSS” the “polyreactivity (PSR sort gate)” value was “low polyreactivity”. With “QVQLVESGGGLVQAGGSLRLTCAASGRIFYGNALGWYRQAPGKERELVAAISSGGGSTYYADSVKGRFTISRDNAKNTVYLQLNSLKPEDTAVYYCAADPVHRFPGTGGFWGKGTQVTVSS” the “polyreactivity (PSR sort gate)” value was “low polyreactivity”. For “QVQLVESGGGLVQAGGSLRLSCAASGRTFYGYAMGWYRPAPGKERELVAAIDRGGSTDYADSVKGRFTISRDNAKNTVYLQLNSLKTEDTAVYYCAKGYDYYGRRYYYWGQGTQVTVSS”, the “polyreactivity (PSR sort gate)” value was “high polyreactivity”. In the case of “QVQLVESGGGLVQAGGSLRLSCAASGSIFRVYAMGWYRHAPGKERELVATITWNGGSTYYADSVKGRFTISRDNAKNTVYLQMNSLKPEDTAVYYCAAGRDTWPSTYYYWGQGSQVTVSS”, the “polyreactivity (PSR sort gate)” value is reported as “low polyreactivity”.
